In US20190112393 (published 2019):
Changes are numbered by the printed parent chain.

T1: human FcγRIa (human, UniProt P12314)
T1 chain: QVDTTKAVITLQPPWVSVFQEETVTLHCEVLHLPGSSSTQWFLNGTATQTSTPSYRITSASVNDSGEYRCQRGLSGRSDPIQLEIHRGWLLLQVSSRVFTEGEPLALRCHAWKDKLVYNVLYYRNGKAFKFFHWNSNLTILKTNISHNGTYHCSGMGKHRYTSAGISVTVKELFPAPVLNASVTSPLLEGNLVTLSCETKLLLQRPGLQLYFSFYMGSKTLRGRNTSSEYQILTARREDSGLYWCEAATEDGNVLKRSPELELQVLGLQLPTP

T2: human FcγRIIb (human, UniProt P31994)
T2 chain: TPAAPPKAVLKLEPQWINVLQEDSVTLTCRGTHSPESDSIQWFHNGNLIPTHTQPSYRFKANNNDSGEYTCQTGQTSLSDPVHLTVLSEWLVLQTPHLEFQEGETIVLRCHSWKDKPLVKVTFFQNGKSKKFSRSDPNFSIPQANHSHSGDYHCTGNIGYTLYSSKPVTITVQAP

B1: BP547 (antibody)
chain 1: QVQLQESGPGLVKPSETLSLTCAVSGHSISHDHAWSWVRQPPGEGLEWIGFISYSGITNYNPSLQGRVTISRDNSKNTLYLQMNSLRAEDTAVYYCARSLARTTAMDYWGEGTLVTVSSASTKGPSVFPLAPSSKSTSGGTAALGCLVKDYFPEPVTVSWNSGALTSGVHTFPAVLQSSGLYSLSSVVTVPSSSLGTQTYICNVNHKPSNTKVDKKVEPKSCDKTHTCPPCPAPDLLGDDSVFLFPPKPKDTLMISRTPEVTCVVVDVSDEDGEVKFNWYVDGVEVHNAKTKPREEQDNSTYRVVSVLTVLHQDWLNGKEYKCKVSNKALPRPIEKTISKAKGQPREPQVYTLPPSRDELTKNQVSLTCLVKGFYPSDIAVEWESNGQPENNYKTTPPVLDSDGSFFLYSRLTVDKSRWQQGNVFSCSVMHEALHNHYTQESLSLSP
chain 2: not shown
B2: BP541 (antibody)
chain 1: B1 chain 1 with K276Q, R411K
chain 2: not shown
B3: BP548 (antibody)
chain 1: B1 chain 1 with R411K, Q421E
chain 2: not shown
B4: BP543 (antibody)
chain 1: B1 chain 1 with D270Q, R411K
chain 2: not shown
B5: BP544 (antibody)
chain 1: B1 chain 1 with R357Q, R411K
chain 2: not shown
B6: BP546 (antibody)
chain 1: B1 chain 1 with L360M, R411K
chain 2: not shown
B7: BP230 (antibody)
chain 1: B1 chain 1 with R411K
chain 2: not shown
B8: BP545 (antibody)
chain 1: B1 chain 1 with D358E, R411K
chain 2: not shown
B9: BP542 (antibody)
chain 1: B1 chain 1 with D298F, R411K
chain 2: not shown
B10: F1382 (antibody)
chain 1: QVQLQESGPGLVKPSETLSLTCAVSGHSISHDHAWSWVRQPPGEGLEWIGFISYSGITNYNPSLQGRVTISRDNSKNTLYLQMNSLRAEDTAVYYCARSLARTTAMDYWGEGTLVTVSSASTKGPSVFPLAPSSKSTSGGTAALGCLVKDYFPEPVTVSWNSGALTSGVHTFPAVLQSSGLYSLSSVVTVPSSSLGTQTYICNVNHKPSNTKVDKKVEPKSCDKTHTCPPCPAPELLGGPSVFLFPPKPKDTLMISRTPEVTCVVVDVSHEDPEVKFNWYVDGVEVHNAKTKPREEQYNSTYRVVSVLTVLHQDWLNGKEYKCKVSNKALPAPIEKTISKAKGQPREPQVYTLPPSRDELTKNQVSLTCLVKGFYPSDIAVEWESNGQPENNYKTTPPVLDSDGSFFLYSKLTVDKSRWQQGNVFSCKVLHEALHSHYTQKSLSLSP
chain 2: DIQMTQSPSSLSASVGDSVTITCQASTDISSHLNWYQQKPGKAPELLIYYGSHLLSGVPSRFSGSGSGTDFTFTISSLEAEDAATYYCGQGNRLPYTFGQGTKVEIERTVAAPSVFIFPPSDEQLKSGTASVVCLLNNFYPREAKVQWKVDNALQSGNSQESVTEQDSKDSTYSLSSTLTLSKADYEKHKVYACEVTHQGLSSPVTKSFNRGEC
B11: F1390 (antibody)
chain 1: B10 chain 1 with K428S, Y438H
chain 2: B10 chain 2
B12: F1392 (antibody)
chain 1: B10 chain 1 with K428S, Y438K
chain 2: B10 chain 2
B13: F1383 (antibody)
chain 1: B10 chain 1 with K428R
chain 2: B10 chain 2
B14: F1380 (antibody)
chain 1: B10 chain 1 with K428D
chain 2: B10 chain 2
B15: F1391 (antibody)
chain 1: B10 chain 1 with K428S, Y438N
chain 2: B10 chain 2
B16: F1388 (antibody)
chain 1: B10 chain 1 with K428S, Y438F
chain 2: B10 chain 2
B17: F1386 (antibody)
chain 1: B10 chain 1 with K428Y
chain 2: B10 chain 2
B18: F1384 (antibody)
chain 1: B10 chain 1 with K428A
chain 2: B10 chain 2
B19: F1389 (antibody)
chain 1: B10 chain 1 with K428S, Y438T
chain 2: B10 chain 2
B20: F1385 (antibody)
chain 1: B10 chain 1 with K428Q
chain 2: B10 chain 2
B21: F1387 (antibody)
chain 1: B10 chain 1 with K428S, Y438M
chain 2: B10 chain 2
B22: F1381 (antibody)
chain 1: B10 chain 1 with K428E
chain 2: B10 chain 2
B23: F1171 (antibody)
chain 1: B10 chain 1 with S426N, K428S
chain 2: B10 chain 2
B24: F1167 (antibody)
chain 1: B10 chain 1 with M254Y, S256T, T258E, S426N, K428S, L430M, S436N
chain 2: B10 chain 2
B25: Fv4-YTE (antibody)
chain 1: B10 chain 1 with M254Y, S256T, T258E, K428S, L430M, S436N
chain 2: B10 chain 2
B26: F1170 (antibody)
chain 1: B10 chain 1 with K428S, Q440R, S442E
chain 2: B10 chain 2
B27: Fv4-IgG1 (antibody)
chain 1: not shown
chain 2: B10 chain 2
B28: F1172 (antibody)
chain 1: B10 chain 1 with K428S, L430M, S436H, Q440R, S442E
chain 2: B10 chain 2
B29: F1166 (antibody)
chain 1: B10 chain 1 with M254Y, S256T, T258E, K428S, L430M, S436N, Q440R, S442E
chain 2: B10 chain 2
B30: BP264 (antibody)
chain 1: B1 chain 1 with D270E, R411K
chain 2: not shown
B31: BP435 (antibody)
chain 1: B1 chain 1 with K328A, I334T, R411K
chain 2: not shown
B32: BP426 (antibody)
chain 1: B1 chain 1 with S269A, D270E, E271D, D298Y, R411K
chain 2: not shown

Target: T1, human FcγRIa
Assay: SPR

Kd [nM]	Binder
12	B1
11	B2
12	B3
23	B4
9.8	B5
9	B6
10	B7

Target: T2, human FcγRIIb
Assay: SPR

Kd [nM]	Binder
19	B1
16	B2
19	B3
20	B4
17	B8
17	B5
15	B6
20	B9
18	B7

Target: human FcRn (human)
Assay: SPR, pH 6.0

Kd [nM]	Binder
130	B10
400	B11
270	B12
160	B13
73	B14
420	B15
80	B16
160	B17
86	B18
68	B19
77	B20
150	B21
86	B22

Target: human FcRn (human)
Assay: SPR, pH 6.0
Remark: another data set of the same source

Kd [nM]	Binder
240	B23
250	B24
210	B25
150	B26
2400	B27
400	B28
210	B29

Target: T1, human FcγRIa
Assay: SPR
Remark: another data set of the same source

Kd [nM]	Binder
7.4	B30
1	B31
1	B32
